Data as given in patent US20170137467A1 (CHROMOTEK, published 2017).

B1: BC2 nanobody (BC2-Nb) (VHH)
VHH: QVQLVESGGGLVQPGGSLTLSCTASGFTLDHYDIGWFRQAPGKEREGVSCINNSDDDTYYADSVKGRFTIFMDNAKDTVYLQMNSLKPEDTAIYYCAEARGCKRGRYEYDFWGQGTQVTVSS
notes: immobilised on agarose/sepharose beads in this assay; also called BC2 nanotrap (immobilised form); not shown: C-terminal 6xHis-tag added by pHEN6 vector
B2: BC2 nanobody (VHH)
VHH: QVQLVESGGGLVQPGGSLTLSCTASGFTLDHYDIGWFRQAPGKEREGVSCINNSDDDTYYADSVKGRFTIFMDNAKDTVYLQMNSLKPEDTAIYYCAEARGCKRGRYEYDFWGQGTQVTVSS
notes: immobilised on beads in this assay; also called BC2-Nb; BC2 nanotrap (immobilised)
B3: BC2-NbR106S (VHH)
VHH: QVQLVESGGGLVQPGGSLTLSCTASGFTLDHYDIGWFRQAPGKEREGVSCINNSDDDTYYADSVKGRFTIFMDNAKDTVYLQMNSLKPEDTAIYYCAEARGCKRGSYEYDFWGQGTQVTVSS
notes: headlock mutant of BC2-Nb; immobilised on beads in this assay
B4: BC2-NbR106S (VHH)
VHH: QVQLVESGGGLVQPGGSLTLSCTASGFTLDHYDIGWFRQAPGKEREGVSCINNSDDDTYYADSVKGRFTIFMDNAKDTVYLQMNSLKPEDTAIYYCAEARGCKRGSYEYDFWGQGTQVTVSS
notes: immobilised on beads in this assay; not shown: C-terminal 6xHis-tag added by pHEN6 vector
B5: BC2-NbR106E (VHH)
VHH: QVQLVESGGGLVQPGGSLTLSCTASGFTLDHYDIGWFRQAPGKEREGVSCINNSDDDTYYADSVKGRFTIFMDNAKDTVYLQMNSLKPEDTAIYYCAEARGCKRGEYEYDFWGQGTQVTVSS
notes: as for B4

Columns and labels:
[1] = target: T1, BC2T A6G (human); experiment: library pulldown, LC-MS of supernatant; ratio vs GFP-Nb control (0=captured, 1=not captured)
T1 construct: position 6 library (BC2TA6X), row G
T1 peptide: Ac-PDRKAGVSHWQQ-NH2
From the text: (§1) In total, 12 different BC2T libraries displaying all 20 proteinogenic amino acids in one single position of the peptide were used in immunoprecipitation experiments. […] The direct comparison with the GFP-Nb made it possible to determine the quantitative degree of peptide capture without the need of labeled standards. […] The more peptide was captured the more the value approximates 0. It was not possible to discriminate between isoleucine (I) and leucine (L) peptide versions since these peptides are isobaric.
(§2) To investigate the binding specificity of the BC2T and derived mutants peptide libraries for each amino acid position of the sequence […] (SEQ ID NO:4) were synthesized with acetyl and amide groups located at the N-termini or C-termini respectively (Intavis). […] Incubations were performed in 300 μl PBS/0.01% CHAPS for 1 h on a HulaMixer (Life Technologies). Subsequent to a centrifugation step 10 μl supernatant were analyzed in a LC-MS procedure. Peptides were separated using an UltiMate3000 RSLCnano System (Thermo Scientific), composed of a C18 PepMap100μ-Precolumn (300 μm×5 mm; particle size: 5 μm; pore size: 100 Å—Thermo Scientific) and a C18 analytical column (Acclaim Rapid Separation LC (RSLC) Column: 150 mm×5 mm; particle size: 2.2 μm; pore size: 100 Å—Thermo Scientific). A step gradient was applied starting at 8% and ending after 20 min at 30% eluent B (80% acetonitrile, 20% H₂O, 0.1% formic acid).

[2] = target: T2, BC2T V7(I/L1); experiment: as above
T2 construct: position 7 library, row I/L1
From the text: as §1, §2

[3] = target: T3, BC2T D2A (human); experiment: as above
T3 construct: position 2 library, row A
T3 peptide: Ac-PARKAAVSHWQQ-NH2
From the text: as §1, §2

[4] = target: T4, BC2T D2G (human); experiment: as above
T4 construct: position 2 library, row G
T4 peptide: Ac-PGRKAAVSHWQQ-NH2
From the text: as §1, §2

[5] = target: T5, BC2T D2(I/L1); experiment: as above
T5 construct: position 2 library, row I/L1
From the text: as §1, §2

[6] = target: T6, BC2T D2M (human); experiment: as above
T6 construct: position 2 library, row M
T6 peptide: Ac-PMRKAAVSHWQQ-NH2
From the text: as §1, §2

[7] = target: T7, BC2T R3(I/L1); experiment: as above
T7 construct: position 3 library (BC2TR3X), row I/L1
From the text: as §1, §2

[8] = target: T8, BC2T R3M (human); experiment: as above
T8 construct: position 3 library (BC2TR3X), row M
T8 peptide: Ac-PDMKAAVSHWQQ-NH2
From the text: as §1, §2

[9] = target: T9, BC2T P1G (human); experiment: as above
T9 construct: position 1 library, row G
T9 peptide: Ac-GDRKAAVSHWQQ-NH2
From the text: as §1, §2

[10] = target: T10, BC2T K4A (human); experiment: as above
T10 construct: position 4 library, row A
T10 peptide: Ac-PDRAAAVSHWQQ-NH2
From the text: as §1, §2

[11] = target: T11, BC2T K4(I/L2); experiment: as above
T11 construct: position 4 library, row I/L2
From the text: as §1, §2

[12] = target: T12, BC2T P1V (human); experiment: as above
T12 construct: position 1 library, row V
T12 peptide: Ac-VDRKAAVSHWQQ-NH2
From the text: as §1, §2

[13] = target: T13, BC2T A5G (human); experiment: as above
T13 construct: position 5 library, row G
T13 peptide: Ac-PDRKGAVSHWQQ-NH2
From the text: as §1, §2

[14] = target: T14, BC2T A5V (human); experiment: as above
T14 construct: position 5 library, row V
T14 peptide: Ac-PDRKVAVSHWQQ-NH2
From the text: as §1, §2

[15] = target: T15, BC2T A5(I/L1); experiment: as above
T15 construct: position 5 library, row I/L1
From the text: as §1, §2

[16] = target: T16, BC2T A5(I/L2); experiment: as above
T16 construct: position 5 library, row I/L2
From the text: as §1, §2

[17] = target: T17, BC2T S8T; experiment: positional peptide library pulldown on immobilised Nb, LC-MS of supernatant; signal ratio to control GFP-Nb (1 = not captured, near 0 = captured)
T17 construct: positional scanning library member
T17 peptide: Ac-PDRKAAVTHWQQ-NH2
From the text: as §1, §2

[18] = target: T18, BC2T W10T; experiment: as above
T18 construct: positional scanning library member
T18 peptide: Ac-PDRKAAVSHTQQ-NH2
From the text: as §1, §2

[19] = target: T19, BC2T W10Q; experiment: as above
T19 construct: positional scanning library member
T19 peptide: Ac-PDRKAAVSHQQQ-NH2
From the text: as §1, §2

[20] = target: T20, BC2T S8Y; experiment: as above
T20 construct: positional scanning library member
T20 peptide: Ac-PDRKAAVYHWQQ-NH2
From the text: as §1, §2

[21] = target: T21, BC2T S8R; experiment: as above
T21 construct: positional scanning library member
T21 peptide: Ac-PDRKAAVRHWQQ-NH2
From the text: as §1, §2

[22] = target: T22, BC2T Q12R; experiment: as above
T22 construct: positional scanning library member
T22 peptide: Ac-PDRKAAVSHWQR-NH2
From the text: as §1, §2

[23] = target: T23, BC2T Q11H; experiment: as above
T23 construct: positional scanning library member
T23 peptide: Ac-PDRKAAVSHWHQ-NH2
From the text: as §1, §2

Row | Binder | ratio [1] | ratio [2] | ratio [3] | ratio [4] | ratio [5] | ratio [6] | ratio [7] | ratio [8] | ratio [9] | ratio [10] | ratio [11] | ratio [12] | ratio [13] | ratio [14] | ratio [15] | ratio [16] | ratio [17] | ratio [18] | ratio [19] | ratio [20] | further results
1 | B1 | 0.7 | 0.1 | 0.2 | 0.3 | 0.1 | 0.1 | 0.5 | 0.7 | 0.4 | 0.2 | 0.2 | 0.2 | 0.3 | 0.1 | 0.1 | 0.1 | – | – | – | – | –
2 | B2 | – | – | – | – | – | – | – | – | – | – | – | – | – | – | – | – | 0.1 | 1 | 1.1 | 0.6 | ratio [21]: 0.5; ratio [22]: 0.1; ratio [23]: 0.1
3 | B3 | – | – | – | – | – | – | – | – | – | – | – | – | – | – | – | – | 0.2 | 1 | 1.1 | 0.9 | ratio [21]: 0.9; ratio [22]: 0.1; ratio [23]: 0.2
4 | B4 | 0.9 | 0.3 | 0.4 | 0.5 | 0.2 | 0.2 | 0.9 | 0.9 | 0.6 | 0.6 | 0.6 | 0.4 | 0.5 | 0.2 | 0.2 | 0.2 | – | – | – | – | –
5 | B5 | 0.8 | 0.1 | 0.2 | 0.4 | 0.1 | 0.1 | 0.9 | 0.9 | 0.5 | 0.4 | 0.5 | 0.3 | 0.4 | 0.1 | 0.1 | 0.1 | – | – | – | – | –
